These results are taken from patent US11549134B2, “Modified amadoriase and method for producing the same, agent for improving surfactant resistance of amadoriase and composition for measuring HbA1c using the same” (Kikkoman Corporation, priority 2013, dated 2023).

Holding throughout (format): biochemical
Data set [1] is described as follows: Surfactant resistance (residual activity) of CcFX variants, 0.01% CTAC. Particulars: 30°C, 5 minutes, 20 mM potassium phosphate buffer (pH 7.0), crude enzyme, Table 1-2. On the procedure: (§1) An amadoriase crude enzyme solution or an amadoriase purified sample is diluted with a 30 mM MES/21 mM Tris buffer solution (pH6.5) so as to have a concentration of about 1.0 U/ml. To this, CTAC (for example, manufactured by Tokyo Kasei Kogyo Co., Ltd.) is added so as to obtain a final concentration 0.01% (w/v) or 0.04%. The resultant mixture is heated at 30° C. for 5 minutes. After heating, the mixture is diluted double with a 10 mM phosphate buffer (pH7.0) containing 0.15% BSA to prepare a sample. The enzyme activities of the sample before and after a surfactant treatment are measured by the method described in Section B above. […] In this manner, surfactant resistance is evaluated.
Using a recombinant plasmid containing CcFX gene (SEQ ID NO: 55) as a starting plasmid, various variants were produced as in the procedures described in (1) and (2) above in Escherichia coli strain JM109 (pKK223-3-CcFX) having the plasmid. […] Subsequently, the surfactant resistance of the modified amadoriases was evaluated according to the measurement method for surfactant resistance described in (4) although under surfactant treatment conditions in which the amadoriases were each diluted in a 20 mM potassium phosphate buffer solution (pH 7.0) and mixed with 0.01% CTAC. […]

Data set [2] can be described thus: Surfactant resistance (residual activity) of CFP-D multiple variants, 0.04% CTAC. Particulars: 30°C, 5 minutes, crude enzyme. The protocol: An amadoriase crude enzyme solution or an amadoriase purified sample is diluted with a 30 mM MES/21 mM Tris buffer solution (pH6.5) so as to have a concentration of about 1.0 U/ml. To this, CTAC (for example, manufactured by Tokyo Kasei Kogyo Co., Ltd.) is added so as to obtain a final concentration 0.01% (w/v) or 0.04%. The resultant mixture is heated at 30° C. for 5 minutes. After heating, the mixture is diluted double with a 10 mM phosphate buffer (pH7.0) containing 0.15% BSA to prepare a sample. The enzyme activities of the sample before and after a surfactant treatment are measured by the method described in Section B above. The ratio of activity of the sample after the surfactant treatment relative to the activity of the sample before the surfactant treatment (regarded as 100), i.e., the residual activity (%), is obtained. In this manner, surfactant resistance is evaluated. […]

The nature of data set [3]: Surfactant resistance (residual activity), 0.04% TTAC. Particulars: 20 mM potassium phosphate buffer (pH 7.0). On the procedure: as §1
Tetradecyltrimethylammonium chloride (hereinafter indicated with “TTAC”) was used in place of the surfactant CTAC used in Example 2 to evaluate the stability of CFP-D. The surfactant resistance of various modified amadoriases was evaluated in accordance with a measurement method for surfactant resistance according to Example 1, although under surfactant treatment conditions in which the amadoriases were each diluted in a 20 mM potassium phosphate buffer solution (pH 7.0) and mixed with 0.04% TTAC. In this respect, it was confirmed that when the warmed sample was again measured for activity 30 minutes after 2-fold dilution in a BSA solution, there was no change in the activity value.

The nature of data set [4]: Surfactant resistance (residual activity), 0.04% SDS. To be noted: 30 mM MES/21 mM Tris buffer (pH 6.5). The protocol: as §1
The stability of CFP-D was evaluated using sodium dodecyl sulfate (hereinafter indicated with “SDS”) in place of the surfactant CTAC used in Example 2. The surfactant resistance of the modified amadoriases was evaluated in accordance with a measurement method for surfactant resistance according to Example 1 although under surfactant treatment conditions in which the amadoriases were each diluted in a 30 mM MES/21 mM Tris buffer solution (pH 6.5) and mixed with 0.04% SDS. In this respect, it was confirmed that when the warmed sample was again measured for activity 30 minutes after 2-fold dilution in a BSA solution, there was no change in the activity value.

B1: CcFX: ketoamine oxidase derived from Curvularia clavata, SEQ ID NO: 37 (protein, listed as Curvularia clavata)
chain: MAPSRANTSVIVVGGGGTIGSSTALHLVRSGYTPSNITVLDTYPIPSAQSAGNDLNKIMGIRLRNKVDLQLSLEARQMWREDDLFKEYFHNTGRLDCAHGEEGLADLRQAYQALLDANAGLEETTEWLDSEDEILKKMPLLDREQIKGWKAVYSQDGGWLAAAKAINAIGEYLRAQGVKFGFGGAGSFKQPLLAEGVCIGVETVDGTRYYADKVVLAAGAWSPVLVDLEDQCVSKAWVYAHIQLTPEEAAEYKNVPVVYNGDVGFFFEPDEHGVIKVCDEFPGFTRFKQHQPYGAKAPKRISVPRSAAKHPTDTYPDASEKSIRKAIATFLPKFTEKELFNRHLCWCTDTADAALLMCEHPEWKNFVLATGDSGHTFKLLPNIGKHVVELLEGTLAEDLAHAWRWRPGTGDALKSRRAAPAKDLADMPGWKHDDVVKSKL
B1: the “Residual Activity(%)” value in data set [1] came out at 27.4%.

B2: CFP-D: amadoriase derived from the genus Coniochaeta with E98A, F43Y, G184D, deletion of 3 carboxy-terminal amino acid residues; SEQ ID NO: 3 (protein, listed as Coniochaeta sp.)
chain: MTSNRADTRVIVVGGGGTIGSSTALHLVRSGYAPANITVLDTYEIPSAQSAGHDLNKIMGIRLRNKVDLQMSLEARQMWKEDELFQPFFHNTGRMDCAHTPEGIEDLKKQYQALHDAGAGLEKTHAWLDNEDEILSKMPLLQRDQIQGWKAIWSQDGGWLAAAKAINAIGQFLKERGVKFGFGDAGSFKQPLFDDEGTTCIGVETADGTKYYADKVVLAAGAWSPTLVDLEDQCCSKAWVYAHIQLTPEEAAEYKGVPVVYNGEFGFFFEPDEFGVIKVCDEFPGFSRFKEHQPYGAPSPKRISVPRSHAKHPTDTYPDASEVSIKKAIATFLPRFQDKELFNRALCWCTDTADAALLMCEHPKWKNFILATGDSGHSFKILPNVGKYVVELIEGRLPEEMAYQWRWRPGGDALKSRRAAPPKDLADMPGWKHD
modifications: 3 C-terminal residues deleted
For B2, the “Residual Activity(%)” value in data set [2] amounted to 12.7%; in data set [3] it was 29.2%; in data set [4] it was 11.3%.
